B1: 嵌合单抗rhA3 (重组嵌合抗体A3单抗) (antibody, human IgG4 S228P, kappa, V domains shown)
VH: QSVKESGGRLVTPGGTLTLTCTVSGFSLSTYYMSWVRQAPGKGLEWIGSIESYGDRYYATWAKGRFTISKTSSTTVDLKMTSLTASDTATYFCTRNDLSWDNDNIWGPGTLVTVSS
VL: DVQMTQTPSSVSVSVGGTVTINCQASQSVYGNNELNWYQQKSGQPPKLLIYKAGTLASGVPSRFSGSGSGTQFTLTISDLECDDAAIYYCQGGYWGQRAFGGGTKLEIKR
B2: 小鼠抗THSD7A单抗A3 (antibody, V domains shown)
VH: B1 VH
VL: DVQMTQTPSSVSVSVGGTVTINCQASQSVYGNNELNWYQQKSGQPPKLLIYKAGTLASGVPSRFSGSGSGTQFTLTISDLECDDAAIYYCQGGYWGQRAFGGGTKLEIK
notes: Selected from a phage scFv library of immunised mice; variable regions cloned into a eukaryotic expression vector and expressed in 293T cells

Assays:
[1] = molecular target: 重组人THSD7A蛋白 (recombinant human THSD7A protein) (human) (UniProt Q9UPZ6); assay: indirect ELISA on coated THSD7A, against the anti-THSD7A human serum standard
[2] = molecular target: 重组人THSD7A蛋白 (recombinant human THSD7A protein) (human) (UniProt Q9UPZ6); assay: indirect ELISA on coated THSD7A, serum standard read on the rhA3 standard curve
[3] = molecular target: 重组人THSD7A蛋白 (recombinant human THSD7A protein) (human) (UniProt Q9UPZ6); assay: indirect ELISA on coated THSD7A, value read from the curve of the anti-THSD7A human serum standard
[4] = molecular target: T1, 重组人THSD7A蛋白 (recombinant human THSD7A protein) (human, UniProt Q9UPZ6 48-1606); assay: phage ELISA / ELISA of supernatants on the antigen, then chemiluminescence immunoassay of purified antibody
T1 construct: Expressed by transient transfection of 293T cells; no tag is mentioned; also called hTHSD7A; 人源THSD7A
T1 sequence (Q9UPZ6 48-1606 limits assumed): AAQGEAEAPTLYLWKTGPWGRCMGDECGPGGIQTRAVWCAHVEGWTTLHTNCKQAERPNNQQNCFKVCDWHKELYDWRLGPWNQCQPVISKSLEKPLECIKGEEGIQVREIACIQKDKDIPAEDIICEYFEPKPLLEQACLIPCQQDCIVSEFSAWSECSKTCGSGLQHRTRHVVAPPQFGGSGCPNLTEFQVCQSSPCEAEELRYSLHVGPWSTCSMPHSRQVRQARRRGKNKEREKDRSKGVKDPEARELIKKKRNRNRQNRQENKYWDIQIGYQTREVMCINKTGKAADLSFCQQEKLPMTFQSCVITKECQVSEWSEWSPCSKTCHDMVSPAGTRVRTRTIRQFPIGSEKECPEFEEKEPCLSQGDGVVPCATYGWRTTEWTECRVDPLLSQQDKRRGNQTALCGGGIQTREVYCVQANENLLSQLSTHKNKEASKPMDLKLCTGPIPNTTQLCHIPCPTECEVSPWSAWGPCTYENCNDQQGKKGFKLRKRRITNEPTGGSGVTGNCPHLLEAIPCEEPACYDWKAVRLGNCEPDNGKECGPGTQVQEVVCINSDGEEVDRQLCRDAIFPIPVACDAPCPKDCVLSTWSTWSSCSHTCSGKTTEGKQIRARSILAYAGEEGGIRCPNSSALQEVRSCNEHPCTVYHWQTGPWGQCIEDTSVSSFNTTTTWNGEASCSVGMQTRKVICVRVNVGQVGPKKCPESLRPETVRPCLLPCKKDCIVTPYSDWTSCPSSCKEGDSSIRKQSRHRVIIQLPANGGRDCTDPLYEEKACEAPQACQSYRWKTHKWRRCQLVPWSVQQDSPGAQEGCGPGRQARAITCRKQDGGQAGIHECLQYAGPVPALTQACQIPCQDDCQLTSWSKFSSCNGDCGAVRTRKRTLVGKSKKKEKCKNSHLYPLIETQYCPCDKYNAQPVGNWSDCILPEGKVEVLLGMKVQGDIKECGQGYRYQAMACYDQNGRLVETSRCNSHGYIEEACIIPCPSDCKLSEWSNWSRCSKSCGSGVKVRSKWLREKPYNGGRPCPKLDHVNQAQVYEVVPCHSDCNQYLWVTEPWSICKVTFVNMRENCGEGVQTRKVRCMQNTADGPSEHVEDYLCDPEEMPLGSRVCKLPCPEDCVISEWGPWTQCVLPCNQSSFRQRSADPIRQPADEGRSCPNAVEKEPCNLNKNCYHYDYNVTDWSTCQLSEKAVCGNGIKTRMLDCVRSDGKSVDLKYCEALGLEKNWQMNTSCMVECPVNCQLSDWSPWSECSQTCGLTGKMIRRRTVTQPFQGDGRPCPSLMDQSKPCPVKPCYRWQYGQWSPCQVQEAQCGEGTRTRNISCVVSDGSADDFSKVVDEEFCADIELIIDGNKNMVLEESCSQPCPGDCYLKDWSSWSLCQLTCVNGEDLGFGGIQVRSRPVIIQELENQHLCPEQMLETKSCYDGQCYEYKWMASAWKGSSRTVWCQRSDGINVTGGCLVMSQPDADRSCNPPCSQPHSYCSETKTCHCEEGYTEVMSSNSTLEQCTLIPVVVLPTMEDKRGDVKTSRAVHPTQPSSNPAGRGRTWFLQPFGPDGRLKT

| Binder | THSD7A抗体活性 per ng [1] [U/ng] | 比活 at 4ng/mL rhA3 [1] [U/ng] | 比活 at 20ng/mL rhA3 [1] [U/ng] | 比活 at 100ng/mL rhA3 [1] [U/ng] | 比活 (serum standard 12U/mL on rhA3 curve) [2] [U/ng] | 比活 (serum standard 60U/mL on rhA3 curve) [2] [U/ng] | 比活 (serum standard 300U/mL on rhA3 curve) [2] [U/ng] | THSD7A抗体浓度 (read from serum standard curve) at 4ng/mL rhA3 [3] [U/mL] | THSD7A抗体浓度 (read from serum standard curve) at 20ng/mL rhA3 [3] [U/mL] | THSD7A抗体浓度 (read from serum standard curve) at 100ng/mL rhA3 [3] [U/mL] | binding result [4] |
| --- | --- | --- | --- | --- | --- | --- | --- | --- | --- | --- | --- |
| B1 | 3 | 3.01 | 2.99 | 3.05 | 3.01 | 2.97 | 2.97 | 12 | 60.5 | 305 | – |
| B2 | – | – | – | – | – | – | – | – | – | – | binds |

— patent CN118063606A (JIANGXI SAIJI BIOTECHNOLOGY CO LTD; HANGZHOU SAIJI …, dated 2024)
